Non-standard residues stand in square brackets, D forms with d. No end group written: not given here. *: point of attachment. CH2Cl = ClC*
Experiments:
Assay in all cases: cell-based or functional assay
[1] = molecular target: Tissue Plasminogen Activator (t-PA)
[2] = molecular target: human Factor VIIa (FVIIa) and human tissue factor (TF) complex (human, UniProt P08709 61-466; P13726 33-251, limits assumed)
[3] = molecular target: bovine factor Xa (from Sigma) (bovine, UniProt P00743 41-492, limits assumed)
Plasmin = molecular target: Plasmin
[4] = molecular target: bovine trypsin (from Sigma) (bovine, UniProt P00760 24-246)
[5] = molecular target: human urokinase (from Sigma) (human, UniProt P00749 21-431, limits assumed)

Sequence of bovine factor Xa (from Sigma) (P00743 41-492 limits assumed): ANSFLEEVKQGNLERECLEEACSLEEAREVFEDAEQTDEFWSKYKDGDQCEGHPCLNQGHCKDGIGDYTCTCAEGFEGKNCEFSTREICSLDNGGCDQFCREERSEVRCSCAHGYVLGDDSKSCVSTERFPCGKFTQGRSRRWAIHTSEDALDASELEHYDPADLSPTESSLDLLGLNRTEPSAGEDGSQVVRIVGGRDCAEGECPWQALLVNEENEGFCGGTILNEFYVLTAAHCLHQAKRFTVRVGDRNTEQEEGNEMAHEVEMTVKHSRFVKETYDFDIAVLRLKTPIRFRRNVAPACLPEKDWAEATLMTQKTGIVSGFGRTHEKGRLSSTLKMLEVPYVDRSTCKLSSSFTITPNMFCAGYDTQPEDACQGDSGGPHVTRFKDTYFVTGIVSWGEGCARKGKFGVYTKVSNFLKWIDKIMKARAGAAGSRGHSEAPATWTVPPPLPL
Sequence of bovine trypsin (from Sigma) (P00760 24-246): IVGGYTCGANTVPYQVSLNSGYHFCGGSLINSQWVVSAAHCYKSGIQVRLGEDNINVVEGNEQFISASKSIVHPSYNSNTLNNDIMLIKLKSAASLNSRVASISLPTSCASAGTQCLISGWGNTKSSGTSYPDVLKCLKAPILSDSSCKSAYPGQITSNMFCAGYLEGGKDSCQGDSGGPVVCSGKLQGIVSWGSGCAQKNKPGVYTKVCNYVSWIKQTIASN

IC50 (nM), inhibition of chromogenic substrate hydrolysis by the enzyme [1]: 106 nM
IC50 (nM), inhibition of chromogenic substrate hydrolysis by the enzyme [2]: 200 nM
IC50 (nM), inhibition of chromogenic substrate hydrolysis by the enzyme [3]: 165 nM
IC50 (nM), inhibition of chromogenic substrate hydrolysis by the enzyme (Plasmin): 699 nM
IC50 (nM), inhibition of chromogenic substrate hydrolysis by the enzyme [4]: 212 nM
IC50 (nM), inhibition of chromogenic substrate hydrolysis by the enzyme [5]: 508 nM
Binder: [dF]-Pro-Arg-CH2Cl [(D)FPR-CH2Cl]

From patent US6699869 (MYRIAD GENETICS, dated 2004)
